Measured values reported in patent publication US11911450B2, “Method for managing pain” (UNIVERSITY OF MIAMI, priority 2017, dated 2024).
Entries after “also recorded” stand apart in the source; their conditions may differ.

Key:
[1] = system: ITPR1 phosphorylation (pITPR1) at Ser-1755; test: forskolin-induced ITPR1 phosphorylation (pITPR1) in transfected HEK293 cells; assay type: cell-based, human; conditions: 1 μM forskolin; for forskolin-induced ITPR1 phosphorylation (pITPR1), western blot: overexpression vs empty vector; for pITPR1 by IHC in response to forskolin: vs empty vector (AAV-null)
Description: Cell culture and transfections: Human neuronal-derived (e.g., NBL), human non-neuronal derived (e.g., HEK293) cells, or dispersed rodent primary DRG cells can be used. HEK293 cells (cat #CRL-1573 ATCC Manassas, VA) were cultured in Dulbecco's modified Eagle's medium (DMEM-Glutamax cat #0566; Invitrogen) supplemented with 10% fetal bovine serum, FBS (cat #16140 ThermoFisher scientific, Waltham, MA) and 1% penicillin/streptomycin (cat #15140 ThermoFisher scientific, Waltham, MA). Cells were seeded in six-well plates at density of 1.0×10^5 cells per well. The following day, cells were transfected with plasmids via lipofectamine LTX reagent and plus (cat #15338 ThermoFisher scientific, Waltham, MA). For each transfection 2 μg of AAV2-ITR (control), AAV2-V5-Car10, or AAV2-V5-CA10 vectors was used. In various embodiments of the disclosure described herein, 2 μg of expression vectors (including positive and negative controls) in instances when AAV2 is not the viral vector employed.
Immunohistochemistry (IHC): HEK293 cells were seeded in poly-L-Lysine/laminin coated glass coverslips at a density of per coverslip, 24 hrs later cells were transfected with Car10, CA10 or empty vector respectively. Cells were cultured at 37° C. for an additional 96 hrs, then treated with forskolin 1 μM (F6886 Sigma, St. Louis, MO) for 5 min, then fixed with 4% paraformaldehyde for 15 min, permeabilized with 0.1% Triton X-100 for 10 min, and blocked with 1% bovine serum albumin (BSA, sigma) for 1 h. Cells were then incubated with anti-pITPR1 (cat #8548s cell signaling technology), anti-Car10 (cat #SAB1102286 Sigma, St Louis, MO), anti-V5 (cat #R960 Invitrogen), anti-ITPR1 (cat #8568 Cell Signaling technology) antibody overnight at 4° C. The next day, cells were incubated with the corresponding second antibody (1:200) for 1 h at room temperature in the dark. Coverslips were dried and affixed to slides using a fluorescent mounting medium containing Dapi (cat #P36931 Life Technologies). It will be understood that IHC methods also are contemplated using anti-Car8, anti-CA8, anti-CA8 fragment (CA8-204), anti-CA10, anti-Car11 and anti-CA11 antibodies.
HEK293 cells were transfected using AAV8-V5 vectors overexpressing Car10 and CA10, an empty vector and vehicle served as controls. A V5 sequence was inserted at the Car10 or CA10 C-terminal region in order to differentiate between exogenous and endogenous CA10/Car10 expression. […] Using the V5 tag, protein overexpression was detected following V5-Car10 and V5-CA10 vector transfection (FIG. 1B).
In order to examine the role of CA10 in the regulation of ITPR1 phosphorylation (pITPR1) that enhances the response of ITPR1 to the IP3 ligand, HEK293 cells were transfected with AAV8-V5-CA10 vectors. […]

[2] = morphine dose vs paw withdrawal latency; assay type: in vivo, mouse; conditions: allometric conversion to 60 kg human
Description: Behavioral tests: Thermal and mechanical sensitivity was measured by Hargreaves test and von Frey filament threshold calculations respectively. See, e.g., Boyce-Rustay et al. Methods Mol Biol. 2010; 617:41-55; Hargreaves et al., Pain. 1988; 32(1):77-88; and Chaplan et al., J Neurosci Methods. 1994; 53(1):55-63. Tests were performed in a quiet room with daylight-like illumination. Animals were habituated to the behavioral room and apparatus for at least 60 minutes for 1 week before a blinded investigator collected data. The thermal sensitivity test was performed using an IITC Plantar Analgesia Meter apparatus (IITC Life sciences, Woodland Hills, CA) with a plastic box placed on a glass plate of constant temperature (30° C.). The mouse plantar surface was exposed to a beam of radiant heat to induced paw withdrawal. Baseline latencies were adjusted to 5-9 sec with a maximum of 20 sec as cutoff to prevent potential injury. The latency time in seconds from the onset of the intense light beam to paw withdrawal was defined as the withdrawal latency of the paw. […] The mouse hind paw was pressed with one of a series of von Frey filaments with logarithmically incrementing stiffness (Stoelting Co, Wood Dale, IL) presented perpendicular to the plantar surface of each hind paw for 1-2 seconds, the 50% threshold was determined using the Up- and Down method.

ITPR1 = ITPR1 (Homo sapiens, UniProt Q14643); test: co-immunoprecipitation / western blot with ITPR1 and pITPR1; assay type: binding; set-up: before and after forskolin stimulation of HEK293 cells was conducted; endogenous in cells; host or cells: HEK293 (ATCC CRL-1573); conditions: HEK293 cells, before and after forskolin stimulation
Sequence of ITPR1 (Q14643 whole entry): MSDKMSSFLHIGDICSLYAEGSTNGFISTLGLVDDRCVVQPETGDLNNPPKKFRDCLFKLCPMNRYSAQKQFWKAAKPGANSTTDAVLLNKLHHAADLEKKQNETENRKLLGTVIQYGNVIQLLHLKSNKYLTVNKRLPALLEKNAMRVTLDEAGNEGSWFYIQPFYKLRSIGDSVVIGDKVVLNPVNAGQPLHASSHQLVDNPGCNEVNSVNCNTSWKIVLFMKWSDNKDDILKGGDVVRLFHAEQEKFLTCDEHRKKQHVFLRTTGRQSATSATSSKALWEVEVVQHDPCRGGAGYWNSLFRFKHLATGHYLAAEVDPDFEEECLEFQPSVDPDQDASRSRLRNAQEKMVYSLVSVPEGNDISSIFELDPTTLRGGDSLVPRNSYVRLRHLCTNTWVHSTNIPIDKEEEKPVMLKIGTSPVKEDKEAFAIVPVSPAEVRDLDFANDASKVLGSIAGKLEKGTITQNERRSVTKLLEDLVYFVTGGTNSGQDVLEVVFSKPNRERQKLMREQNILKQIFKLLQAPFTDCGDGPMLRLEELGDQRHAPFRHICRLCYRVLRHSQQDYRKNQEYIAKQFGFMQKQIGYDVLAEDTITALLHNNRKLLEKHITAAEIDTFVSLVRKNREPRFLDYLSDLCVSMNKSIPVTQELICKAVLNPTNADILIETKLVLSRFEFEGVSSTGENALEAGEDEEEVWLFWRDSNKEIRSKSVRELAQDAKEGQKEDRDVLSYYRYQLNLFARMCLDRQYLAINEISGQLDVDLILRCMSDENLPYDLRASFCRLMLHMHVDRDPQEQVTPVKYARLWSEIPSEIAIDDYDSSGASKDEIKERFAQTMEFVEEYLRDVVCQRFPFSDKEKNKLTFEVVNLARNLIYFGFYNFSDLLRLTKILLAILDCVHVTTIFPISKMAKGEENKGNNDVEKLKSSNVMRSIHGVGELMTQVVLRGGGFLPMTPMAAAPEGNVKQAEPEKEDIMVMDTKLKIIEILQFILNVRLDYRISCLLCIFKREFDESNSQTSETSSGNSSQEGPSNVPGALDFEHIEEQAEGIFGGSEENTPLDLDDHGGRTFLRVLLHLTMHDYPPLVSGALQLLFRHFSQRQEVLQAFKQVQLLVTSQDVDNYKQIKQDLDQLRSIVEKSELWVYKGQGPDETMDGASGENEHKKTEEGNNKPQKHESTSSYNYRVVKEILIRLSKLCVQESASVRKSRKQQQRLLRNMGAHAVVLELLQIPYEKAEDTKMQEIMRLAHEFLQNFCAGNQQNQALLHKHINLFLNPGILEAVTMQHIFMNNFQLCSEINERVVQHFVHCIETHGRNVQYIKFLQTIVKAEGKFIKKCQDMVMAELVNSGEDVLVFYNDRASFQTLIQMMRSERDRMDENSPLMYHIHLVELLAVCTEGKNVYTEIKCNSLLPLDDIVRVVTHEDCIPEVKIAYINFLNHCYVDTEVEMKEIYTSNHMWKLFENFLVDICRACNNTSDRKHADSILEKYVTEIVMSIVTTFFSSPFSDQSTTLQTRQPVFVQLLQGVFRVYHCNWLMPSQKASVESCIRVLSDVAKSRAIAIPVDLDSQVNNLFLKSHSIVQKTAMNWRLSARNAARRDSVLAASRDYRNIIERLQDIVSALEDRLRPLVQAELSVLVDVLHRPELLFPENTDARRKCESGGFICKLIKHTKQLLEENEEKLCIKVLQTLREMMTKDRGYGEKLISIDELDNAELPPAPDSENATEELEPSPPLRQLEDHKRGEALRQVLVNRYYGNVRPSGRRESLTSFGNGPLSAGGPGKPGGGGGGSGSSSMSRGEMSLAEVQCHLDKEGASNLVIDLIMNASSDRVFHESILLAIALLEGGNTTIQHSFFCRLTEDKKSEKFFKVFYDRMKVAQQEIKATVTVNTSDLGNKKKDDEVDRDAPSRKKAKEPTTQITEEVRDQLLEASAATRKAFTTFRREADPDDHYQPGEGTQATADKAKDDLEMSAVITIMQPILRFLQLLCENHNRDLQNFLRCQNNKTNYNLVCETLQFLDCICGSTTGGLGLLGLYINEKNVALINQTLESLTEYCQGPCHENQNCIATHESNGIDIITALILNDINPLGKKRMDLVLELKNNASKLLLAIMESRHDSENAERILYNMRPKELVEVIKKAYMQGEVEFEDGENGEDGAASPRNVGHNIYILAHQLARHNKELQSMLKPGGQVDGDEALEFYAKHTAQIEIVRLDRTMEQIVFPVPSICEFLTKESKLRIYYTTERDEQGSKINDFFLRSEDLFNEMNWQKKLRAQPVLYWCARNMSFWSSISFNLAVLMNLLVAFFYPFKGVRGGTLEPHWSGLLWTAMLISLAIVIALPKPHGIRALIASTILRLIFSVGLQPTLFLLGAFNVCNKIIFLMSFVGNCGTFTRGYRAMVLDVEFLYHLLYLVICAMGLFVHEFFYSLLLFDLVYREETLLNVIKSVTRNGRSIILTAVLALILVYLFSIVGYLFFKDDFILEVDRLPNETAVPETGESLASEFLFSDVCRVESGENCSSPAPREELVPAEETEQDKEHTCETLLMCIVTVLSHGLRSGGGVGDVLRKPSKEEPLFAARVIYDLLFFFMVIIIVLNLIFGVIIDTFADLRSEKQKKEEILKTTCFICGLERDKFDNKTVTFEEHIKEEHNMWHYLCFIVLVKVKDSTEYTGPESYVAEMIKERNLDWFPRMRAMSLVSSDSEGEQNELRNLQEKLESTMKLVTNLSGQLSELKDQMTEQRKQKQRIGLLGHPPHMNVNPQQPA
Description: Immunoprecipitation: Fifty μl magnetic beads (Invitrogen) were incubated with 1 μg pITPR1 antibody for 45 minutes at 4° C. The supernatant was discarded and the beads were washed with binding buffer. Sample proteins of 200-400 μg were added and incubated with the beads for 4 hrs at 4° C. Then the protein complex was washed 3 times with washing buffer, and then eluted with SDS sample buffer. Samples were then heated at 70° C. for 10 min and then subjected to western blot analysis for Car10. The method described herein also is suitable for use in connection with Car8, CA8, CA8 fragment (CA8-204), CA10, Car11 and CA11.
Overexpression of V5-Car10 and V5-CA10 inhibits ATP-induced free calcium release in vitro: ITPR1 contains functionally distinct domains, including the ‘modulatory’ domain responding to intracellular modulators such as calcium, calmodulin, ATP, and carbonic anhydrase-8 (Car8). ATP increases ITPR1-dependent calcium release by increasing the open probability of the channel in the presence of activating concentrations of IP3 and calcium. It is believed that Car8-mediated inhibition of ITPR1 activation and ATP-mediated calcium release requires binding to this modulatory domain. Therefore, the ability of CA8 fragments (e.g., CA8-204), Car10 and CA10 to bind to ITPR1 and pITPR1 was examined. […]

Row | Molecule | forskolin-induced ITPR1 phosphorylation (pITPR1), western blot [1] | pITPR1 by IHC in response to forskolin [1] | paw withdrawal latency elevation compared to morphine human oral equivalent dose [2] | binding to ITPR1 (co-immunoprecipitation) (ITPR1)
1 | Car10: carbonic anhydrase 10, rodent ortholog, overexpressed (V5-tagged) protein (protein, left off: small tags and cut ends, carbonic anhydrase 10, rodent ortholog, overexpressed (V5-tagged) protein) MEIVWEVLFLLQANFIVCISAQQNSPKIHEGWWAYKEVVQGSFVPVPSFWGLVNSAWNLCSVGKRQSPVNIETSHMIFDPFLTPLRINTGGRKVSGTMYNTGRHVSLRLDKEHLVNISGGPMTYSHRLEEIRLHFGSEDSQGSEHLLNGQAFSGEVQLIHYNHELYTNVTEAAKSPNGLVVVSIFIKVSDSSNPFLNRMLNRDTITRITYKNDAYLLQGLNIEELYPETSSFITYDGSMTIPPCYETASWIIMNKPVYITRMQMHSLRLLSQNQPSQIFLSMSDNFRPVQPLNNRCIRTNINFSLQGKDCPNNRAQKLQYRVNEWLLK | reduced forskolin-induced ITPR1 phosphorylation; also recorded: inhibited forskolin-induced pITPR1 | no increase in pITPR1 | produces profound analgesia | do not bind to ITPR1
2 | CA10: human carbonic anhydrase 10, overexpressed (V5-tagged) protein; SEQ ID NO: 9 (protein, V5 tag) MEIVWEVLFLLQANFIVCISAQQNSPKIHEGWWAYKEVVQGSFVPVPSFWGLVNSAWNLCSVGKRQSPVNIETSHMIFDPFLTPLRINTGGRKVSGTMYNTGRHVSLRLDKEHLVNISGGPMTYSHRLEEIRLHFGSEDSQGSEHLLNGQAFSGEVQLIHYNHELYTNVTEAAKSPNGLVVVSIFIKVSDSSNPFLNRMLNRDTITRITYKNDAYLLQGLNIEELYPETSSFITYDGSMTIPPCYETASWIIMNKPVYITRMQMHSLRLLSQNQPSQIFLSMSDNFRPVQPLNNRCIRTNINFSLQGKDCPNNRAQKLQYRVNEWLLK | reduced forskolin-induced ITPR1 phosphorylation; also recorded: inhibited forskolin-induced pITPR1 | no increase in pITPR1 | produces profound analgesia | do not bind to ITPR1
